Measured values taken from PMC10786891, “Massively parallel profiling of RNA-targeting CRISPR-Cas13d”.
Numbering of substitutions follows the chain as printed. In names and notes the source's numbering stands.

T1: EsCas13d, nuclease-dead (Eubacterium siraeum, UniProt B0MS50, R295A;H300A;R849A;H854A)
T1 sequence: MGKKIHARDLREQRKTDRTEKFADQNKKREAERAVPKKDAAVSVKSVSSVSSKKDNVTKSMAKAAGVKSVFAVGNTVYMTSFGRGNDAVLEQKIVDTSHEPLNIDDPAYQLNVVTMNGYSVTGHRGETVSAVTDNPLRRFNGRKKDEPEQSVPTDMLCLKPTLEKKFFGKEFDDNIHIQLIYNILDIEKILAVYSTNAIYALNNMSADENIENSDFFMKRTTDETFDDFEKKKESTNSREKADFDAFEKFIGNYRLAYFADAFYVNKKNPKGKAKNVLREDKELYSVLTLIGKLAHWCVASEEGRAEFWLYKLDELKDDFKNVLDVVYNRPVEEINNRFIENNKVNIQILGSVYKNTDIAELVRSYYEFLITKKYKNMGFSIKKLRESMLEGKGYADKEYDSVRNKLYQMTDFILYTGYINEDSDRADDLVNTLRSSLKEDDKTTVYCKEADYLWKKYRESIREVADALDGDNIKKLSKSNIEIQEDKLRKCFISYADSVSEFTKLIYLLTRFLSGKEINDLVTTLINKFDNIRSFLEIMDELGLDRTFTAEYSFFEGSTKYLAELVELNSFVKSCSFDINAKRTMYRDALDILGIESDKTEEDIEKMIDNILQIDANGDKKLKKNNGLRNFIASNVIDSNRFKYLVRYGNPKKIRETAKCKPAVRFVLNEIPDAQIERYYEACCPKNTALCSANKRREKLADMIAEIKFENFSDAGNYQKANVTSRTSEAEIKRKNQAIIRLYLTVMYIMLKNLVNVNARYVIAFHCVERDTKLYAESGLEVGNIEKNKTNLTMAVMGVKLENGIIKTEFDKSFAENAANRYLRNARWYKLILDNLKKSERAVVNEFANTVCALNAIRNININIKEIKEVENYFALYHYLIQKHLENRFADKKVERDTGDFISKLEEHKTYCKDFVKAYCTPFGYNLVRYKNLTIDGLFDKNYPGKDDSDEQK

B1: target 2 MT 5'PFS GCG 3'PFS AGC (mixed)
RNA 1: CACCCGUGCAAAAUUGCAGGGGUCUAAAACCUUCUCCAAAUUGUUUCAUCCU
RNA 2: GGGAAUGGAUCCACAUCUACGAAUUCGCGAGGAUGAAACAAUUUGGAGAAGAGCAGAUCGGAAGAGCACACGU
B2: target 2 MT 5'PFS GAU 3'PFS AGU (mixed)
RNA 1: B1 RNA 1
RNA 2: B1 RNA 2 with C28A, G29U, C54U
B3: target 2 MT 5'PFS CGC 3'PFS ACU (mixed)
RNA 1: B1 RNA 1
RNA 2: B1 RNA 2 with G27C, C28G, G29C, G53C, C54U
B4: target 2 MT 5'PFS GCG 3'PFS AGU (mixed)
RNA 1: B1 RNA 1
RNA 2: B1 RNA 2 with C54U
B5: target 2 MT 5'PFS UCG 3'PFS CAU (mixed)
RNA 1: B1 RNA 1
RNA 2: B1 RNA 2 with G27U, A52C, G53A, C54U
B6: target 2 MT 5'PFS GAU 3'PFS AGA (mixed)
RNA 1: B1 RNA 1
RNA 2: B1 RNA 2 with C28A, G29U, C54A
B7: target 2 MT 5'PFS GCC 3'PFS AAU (mixed)
RNA 1: B1 RNA 1
RNA 2: B1 RNA 2 with G29C, G53A, C54U
B8: target 2 MT 5'PFS ACG 3'PFS CAU (mixed)
RNA 1: B1 RNA 1
RNA 2: B1 RNA 2 with G27A, A52C, G53A, C54U
B9: target 2 MT 5'PFS UCG 3'PFS CAG (mixed)
RNA 1: B1 RNA 1
RNA 2: B1 RNA 2 with G27U, A52C, G53A, C54G
B10: target 2 MT 5'PFS GCG 3'PFS AGA (mixed)
RNA 1: B1 RNA 1
RNA 2: B1 RNA 2 with C54A
B11: target 2 MT 5'PFS GUU 3'PFS CAC (mixed)
RNA 1: B1 RNA 1
RNA 2: B1 RNA 2 with C28U, G29U, A52C, G53A
B12: target 2 MT 5'PFS GAU 3'PFS AGC (mixed)
RNA 1: B1 RNA 1
RNA 2: B1 RNA 2 with C28A, G29U
B13: target 2 MT 5'PFS GUU 3'PFS CAG (mixed)
RNA 1: B1 RNA 1
RNA 2: B1 RNA 2 with C28U, G29U, A52C, G53A, C54G
B14: target 2 MT 5'PFS CUG 3'PFS ACG (mixed)
RNA 1: B1 RNA 1
RNA 2: B1 RNA 2 with G27C, C28U, G53C, C54G
B15: target 2 MT 5'PFS ACU 3'PFS AAC (mixed)
RNA 1: B1 RNA 1
RNA 2: B1 RNA 2 with G27A, G29U, G53A
B16: target 2 MT 5'PFS ACU 3'PFS AAG (mixed)
RNA 1: B1 RNA 1
RNA 2: B1 RNA 2 with G27A, G29U, G53A, C54G
B17: target 2 MT 5'PFS GAU 3'PFS AGG (mixed)
RNA 1: B1 RNA 1
RNA 2: B1 RNA 2 with C28A, G29U, C54G
B18: target 2 MT 5'PFS ACU 3'PFS AAU (mixed)
RNA 1: B1 RNA 1
RNA 2: B1 RNA 2 with G27A, G29U, G53A, C54U
B19: target 2 MT 5'PFS CGC 3'PFS ACC (mixed)
RNA 1: B1 RNA 1
RNA 2: B1 RNA 2 with G27C, C28G, G29C, G53C
B20: target 2 MT 5'PFS CGC 3'PFS ACG (mixed)
RNA 1: B1 RNA 1
RNA 2: B1 RNA 2 with G27C, C28G, G29C, G53C, C54G
B21: target 2 MT 5'PFS CGC 3'PFS ACA (mixed)
RNA 1: B1 RNA 1
RNA 2: B1 RNA 2 with G27C, C28G, G29C, G53C, C54A
B22: target 2 MT 5'PFS ACG 3'PFS CAC (mixed)
RNA 1: B1 RNA 1
RNA 2: B1 RNA 2 with G27A, A52C, G53A
B23: target 2 MT 5'PFS UCG 3'PFS CAC (mixed)
RNA 1: B1 RNA 1
RNA 2: B1 RNA 2 with G27U, A52C, G53A
B24: target 2 MT 5'PFS GUC 3'PFS GAC (mixed)
RNA 1: B1 RNA 1
RNA 2: B1 RNA 2 with C28U, G29C, A52G, G53A
B25: target 2 MT 5'PFS GCG 3'PFS AGG (mixed)
RNA 1: B1 RNA 1
RNA 2: B1 RNA 2 with C54G
B26: target 2 MT 5'PFS CUG 3'PFS ACC (mixed)
RNA 1: B1 RNA 1
RNA 2: B1 RNA 2 with G27C, C28U, G53C
B27: target 2 MT 5'PFS CUG 3'PFS ACA (mixed)
RNA 1: B1 RNA 1
RNA 2: B1 RNA 2 with G27C, C28U, G53C, C54A
B28: target 2 MT 5'PFS CUG 3'PFS ACU (mixed)
RNA 1: B1 RNA 1
RNA 2: B1 RNA 2 with G27C, C28U, G53C, C54U
B29: target 2 MT 5'PFS UCG 3'PFS CAA (mixed)
RNA 1: B1 RNA 1
RNA 2: B1 RNA 2 with G27U, A52C, G53A, C54A
B30: target 2 MT 5'PFS ACU 3'PFS AAA (mixed)
RNA 1: B1 RNA 1
RNA 2: B1 RNA 2 with G27A, G29U, G53A, C54A
B31: target 2 MT 5'PFS ACG 3'PFS CAG (mixed)
RNA 1: B1 RNA 1
RNA 2: B1 RNA 2 with G27A, A52C, G53A, C54G
B32: target 2 MT 5'PFS GUU 3'PFS CAA (mixed)
RNA 1: B1 RNA 1
RNA 2: B1 RNA 2 with C28U, G29U, A52C, G53A, C54A
B33: target 1 A9U,G13U (mixed)
RNA 1: CACCCGUGCAAAAAUGCAGGGGUCUAAAACUGAGCGGAUAACCUCUCUAUGG
RNA 2: GGGAAUGGAUCCACAUCUACGAAUUCGUACCAUAGAGAUGUUUUCCGCUCACCGAGAUCGGAAGAGCACACGU
B34: target 1 insG 3' of 16,insU 3' of 12 (mixed)
RNA 1: B33 RNA 1
RNA 2: GGGAAUGGAUCCACAUCUACGAAUUCGUACCAUAGAGGAGGUUUAUCCGCUCACCGAGAUCGGAAGAGCACACGU
B35: target 1 insG 3' of 1,insC 3' of 1 (mixed)
RNA 1: B33 RNA 1
RNA 2: GGGAAUGGAUCCACAUCUACGAAUUCGUACCAUAGAGAGGUUAUCCGCUCAGCCCGAGAUCGGAAGAGCACACGU
B36: target 1 G13C,A14C (mixed)
RNA 1: B33 RNA 1
RNA 2: B33 RNA 2 with A38C, U39C, U43A
B37: target 1 insA 3' of 2,insG 3' of 2 (mixed)
RNA 1: B33 RNA 1
RNA 2: B35 RNA 2 with C53A

Target: T1, EsCas13d, nuclease-dead
Test: crRNA (strand 1, pre-loaded); Mg2+; 40 mM Tris-HCl pH 7.5, 150 mM NaCl, 6 mM MgCl2, 1 mM DTT, 0.1% Tween-20, 0.2 mg/ml BSA; 25 C; 10 min per concentration, then washed
Settings: tags: His6-TwinStrep-SUMO cleaved; N-terminal SNAP kept (SNAP-Surface 488); label: 3' end held by stalled T7 RNA polymerase

Row | Binder | Kd
1 | B1 | 0.0097 ± 0.0016 µM
2 | B2 | 0.0123 ± 0.002 µM
3 | B3 | 0.006 ± 0.0008 µM
4 | B4 | 0.0116 ± 0.0021 µM
5 | B5 | ~0.03 µM
6 | B6 | 0.008 ± 0.0011 µM
7 | B7 | 0.018 ± 0.005 µM
8 | B8 | 0.0055 ± 0.0006 µM
9 | B9 | 0.0187 ± 0.0026 µM
10 | B10 | 0.0076 ± 0.001 µM
11 | B11 | 0.0153 ± 0.0023 µM
12 | B12 | 0.0071 ± 0.0006 µM
13 | B13 | 0.0109 ± 0.0009 µM
14 | B14 | 0.00289 ± 0.00025 µM
15 | B15 | 0.0057 ± 0.0008 µM
16 | B16 | 0.0037 ± 0.0005 µM
17 | B17 | 0.0104 ± 0.001 µM
18 | B18 | 0.0041 ± 0.0005 µM
19 | B19 | 0.018 ± 0.004 µM

Row | Binder | Kd
20 | B20 | 0.0052 ± 0.0007 µM
21 | B21 | 0.011 ± 0.005 µM
22 | B22 | 0.0057 ± 0.0012 µM
23 | B23 | 0.027 ± 0.008 µM
24 | B24 | 0.0122 ± 0.0028 µM
25 | B25 | 0.0162 ± 0.0028 µM
26 | B26 | 0.0056 ± 0.0012 µM
27 | B27 | 0.0039 ± 0.0005 µM
28 | B28 | 0.0045 ± 0.0008 µM
29 | B29 | 0.0107 ± 0.0019 µM
30 | B30 | 0.0047 ± 0.0017 µM
31 | B31 | 0.0077 ± 0.0014 µM
32 | B32 | 0.0066 ± 0.0007 µM
33 | B33 | 0.053 ± 0.008 µM
34 | B34 | 0.0123 ± 0.0009 µM
35 | B35 | 0.011 ± 0.0014 µM
36 | B36 | 0.05 ± 0.009 µM
37 | B37 | 0.0105 ± 0.0012 µM
